According to the nanobody polyreactivity screen of Harvey et al. (2022):

test: yeast display, Sf9 membrane polyspecificity reagent, FACS + sequencing; frameworks hold sequencing errors
Outline: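 After 36–48 hours of galactose induction, yeast (Saccharomyces cerevisiae BJ5465) displaying a synthetic nanobody library were stained at 4 °C for 1 hour with 10% biotinylated, detergent-solubilized Sf9 membrane reagent. Streptavidin microbeads enriched the stained cells before FACS sorting into low and high (top ~1%) gates on anti-HA and streptavidin fluorescence. Each clone's polyreactivity label reflects its gate of origin.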

Row | Sequence | polyreactivity (PSR sort gate)
1 | QVQLLESGGGLVHAGGSLRLSCAASGSIFPYYAMGWYRQAPGKERELVAAISDSGDSTYYADSVKGRFTISRDNAKNTVYLQMNSLKPEDTAVYYCNADSRTDYHPHGTMVGPDREYWGQGTQVTVSS | low polyreactivity
2 | QVQLLESGGGLVKAGGSLRLSCAPYGSIFYGYAMGWYRPAPGKERELVAAITRSGGSTYYADSVKGRFTITRFNAKNTVYLQMNSLKPEDTAVYYCAAGWRSVSVRYYGPSDYWGQGTQVTVSS | low polyreactivity
3 | QVQLLESGGGLVLAGGSLRLSCAASGFIIRPYAIGWYRQAPGKERELVAAITYSSGSTYYADSVKGRFTISRDNAKYTVYLEMNSLKPEDTAVYYCNAEFWYETLYEYDYWGQGTQLTVSS | high polyreactivity
4 | QVQLLESGGGLVPAGGSLRLSCAASGYIFHRYAMGWSRQAPGKERELVAAITWTGARTYYADSVKGRFTISRDNAKNTVYLQMNSLKPEDTAVYYAGPASYSFAKSGYWGQGTQVTVSS | high polyreactivity
5 | QVQLLESGGGLVQAGGSHRLSCAASGRIFGSNAMGWYRQAPGKERELVAAITRGGSTNYADSVKGRFTISLDNAKNTVYLQMNSLKPEDTAVYYCAVRWYRKYNYWGQGTQVTVSS | high polyreactivity
6 | QVQLLESGGGLVQAGGSLRITCAASGFTFAVYAMGWYRQAPGKERELVAAISRSGTRTYYADSVKGRFTISRDNAKNTVYLLMNSLKPEDTAVYYCAADKYRHGYDYWGQGTQVTVSS | low polyreactivity
7 | QVQLLESGGGLVQAGGSLRLRCAASGSIFISYAMGWYRQAPGKERELVAAISIRGTRTYYADSVKGRFTISRDNAKNTVYLHMNCLKPEDTAVYYCAADASYTEGMDYWGQGTQGTVSS | high polyreactivity
8 | QVQLLESGGGLVQAGGSLRLSCAAAGIIFGYYTMGWYRQAPGNERELVAAITTTGGSTYYADSVKGRCTISRDNAKNTVYLQMNSLKPEDTAVYYCAARKWSHRTISDYWGQGTQVTVSS | high polyreactivity
9 | QVQLLESGGGLVQAGGSLRLSCAASGAIFFIYVMGWYRQAPGKERELVAAISGSGGPTYYADSVKVRFTISRDNAKNTVFLQMNRLKPEDTAVYYCAARGYRGRMGYWGQGTQVTVSS | low polyreactivity
10 | QVQLLESGGGLVQAGGSLRLSCAASGFNFYYYAMGWYRQAPGKERELVAAISKSGGSTHYADSVKGRFTISRDNAKHTVYLQMNSLKPEDTAVYYCAARYILSKYGSGVRYNYWGQGTQVTVSS | high polyreactivity
11 | QVQLLESGGGLVQAGGSLRLSCAASGFTFLQYAMGWYRQAPGKERELVAAISWSGSRTYYADSVKGRFTISRDNAKNTVYLQMNSLKPEETAVYYCAAVYGGLTLTRNYYWGQGTQVTVSS | high polyreactivity
12 | QVQLLESGGGLVQAGGSLRLSCAASGFTFYLYTMGWYRQATGKERELVAAISRSGDRTYYADSVKGRFTISRDNAKNNVYLQMNSLKPEDTAVYYCAARSYRPTRGDYWGQGTQVTVST | high polyreactivity
13 | QVQLLESGGGLVQAGGSLRLSCAASGLTYYYAMGWYRQAPGKERELVAAISYSGGRTNYADSVKGRFTISRDNAKNTVYLQMNSLKPEDTAVYFCAAVGPRTDYSGYRYYYWVQGTQVTVSS | high polyreactivity
14 | QVQLLESGGGLVQAGGSLRLSCAASGRIFDYYAMGWYRQAPGKERELVAAISDSGDSTYYADSVKGRFTISRDNAKNTVYLQMNRLKPVDTAVYYCAAQGGWIPAQDVRSSWGYNYWGQGTQVSVSS | high polyreactivity
15 | QVQLLESGGGLVQAGGSLRLSCAASGRIFGVNAMGWYRQAPGKERELVAAISAGGGNTYYADSVKGRFTISRDNAKNSVYLQMNSLKPEDTAVYYCNVQRSLRMDYWGQGTQVTVSS | high polyreactivity
16 | QVQLLESGGGLVQAGGSLRLSCAASGRIFHYNAMGWYRQAPGKERELVAAITRRGTSTYYADSVKGRFTISRDNAKNTVYLQMNSLKPEDTAVYYCNTDTYYRLLDYWGQGTQVTVSS | low polyreactivity
17 | QVQLLESGGGLVQAGGSLRLSCAASGRILTGYAMGWYRQAPGKERELVASINWRGGSTYYADSVKRRFTISRDNAKNTVYLQLNSLKPEDTAVYYCAARVRVTGTYYTKYDYWGQGTQVTVSS | high polyreactivity
18 | QVQLLESGGGLVQAGGSLRLSCAASGRTFAYNAMAWDRQAPGTERELVADITSGGSTYYADSVKGRFTISRDNAKNTVYLQMNSRKPEDTAVYYCAGYPQFWYWDYNYWGQGTQVTVSS | high polyreactivity
19 | QVQLLESGGGLVQAGGSLRLSCAASGRTFEYYAMGWYRQAPGKERELDAAITSGGITYYADSVKGRFTISRDNAKITVYLQMNSLKPEDSAVYYCAAKGWYFGYGRYGYWGQGTQVTVSS | high polyreactivity
20 | QVQLLESGGGLVQAGGSLRLSCAASGRTFSGYAMGWYRQAPGKERELVAAISESGDGTYYADSVKGRFTISRDNAKNTVYLQMNSLKPEDTAVYYCAADGTLFSEYYWFFGYHDYWGQGTQVTVSS | high polyreactivity
21 | QVQLLESGGGLVQAGGSLRLSCAASGRTFTYYAMGWYRQAPGKERELVASISTTGRTYYADSVKGRFTISRDNAKNTVYLQMNSLKPDDTAVYYCATRSRYYYDYWGQGTQVTVSS | high polyreactivity
22 | QVQLLESGGGLVQAGGSLRLSCAASGSIFEGNGMGWYRQAPGKERELVAAITFRSGSTYYADSVKGRFTISRDNAKNTVYLQMNSLKPEDTAVYYCAADEYYEVSAYDYWGQGTQVTVSS | low polyreactivity

Row | Sequence | polyreactivity (PSR sort gate)
23 | QVQLLESGGGLVQAGGSLRLSCAASGSIFGGYSMGWYRQAPGKERELVAAISWSGASTYYADSVKGRFTISRDNATTTVSLQMNSLKPEDTAVYSCAARSRVDLARSGYWGQGCQVTVSS | low polyreactivity
24 | QVQLLESGGGLVQAGGSLRLSCAASGSIFGRYVMGWYRQAPGKERELVPRITQSGGSTYYADSVKGRFTISRDNAKNTVYLQMNSLKPEDTAVYYCNVARWGNIPVGEYDYWGQGTQVTVSS | high polyreactivity
25 | QVQLLESGGGLVQAGGSLRLSCAASGSIFYLYAMGWYIQAPGKERELVAVIRRGGSTKYADSVKGRFTISRDNSKNSVYLQMNSLKPEDTAVYDCNVVGYAYGWQYDYWGQGTQVNVSS | high polyreactivity
26 | QVQLLESGGGLVQAGGSLRLSCAASGSIFYPYALGWYRQAPGKERELVAGISRSGASTYYADSVKGRFTISRDKAKNTVYLQMNSLKPEDTAVYYCAADDWTRNYWGQGTQVTVSS | low polyreactivity
27 | QVQLLESGGGLVQAGGSLRLSCAASGSIINRYAMGLYRQAPGKERELVAAISWRGGSTYYADSVKGRFTISRDNAKNTVYLQMNSLKPEDTAVYYCNKVSYVKSGYWGQGTQVTVSS | high polyreactivity
28 | QVQLLESGGGLVQAGGSLRLSCAASGSTFDDYAMGWYRQAPGKEREFVAAIDWSGGSTYYADSVKGRFTISRDNAKNTVYLQMNSLKPEDTAVYYCNADPDGSFDYWGQGTQVTVSS | low polyreactivity
29 | QVQLLESGGGLVQAGGSLRLSCAASGSTFDIYTMGWYRQAPGKERELVAAISRSGTRTYYADSVKGRFTISRDNAKNTVYLQMNSLKPEDTAVYYCNAVQQYYGTWGYGYWGQGTQVTVSS | high polyreactivity
30 | QVQLLESGGGLVQAGGSLRLSCAASGSTFLIYAMGWYRQAPGKERELVASINLNTGRTSYADSVKGRFTISRDNAKNTVYLQMNSLKPEDTAVYYCAAELWVRFRGVKEYDYWGQGTQVSVSS | high polyreactivity
31 | QVQLLESGGGLVQAGGSLRLSCAASGSTFQAYAMGWYRQAPGKERELVAAISVSDGITYYADSVKGRFTISRDNAKNTVYLQMNSLKPEDTAVYYCAAEISLSRSDRIESYDYWGQGTQVTVSS | low polyreactivity
32 | QVQLLESGGGLVQAGGSLRLSCAASGSTFVGYAMGWYRQAPGKERELVAAISGSGTSTYYADSVKGRFTISRDNAKNTVYLQMNSLKPEDTAVYYCNADPIFVYSSYNYWGQGTQVTVSS | low polyreactivity
33 | QVQLLESGGGLVQAGGSLRLSCAASGSTFWPNAMGWYRQAPGKERELVAAITGGGGTNYADSVKGRFTISRDNAKNTVYLQMNSLKPEDTAVYYCAAKKVNSRSHVKYYYWGQGTQVTVSS | high polyreactivity
34 | QVQLLESGGGLVQAGGSLRLSCAASGTSAQEDWMGWYRQAPGKEREFVAAIGLGSHTNYADSLKGRFTISRDNAKNTVYLHMNSLKPEDTAVYYCAVSVWQYSDHVYRGQGTQVTVSS | low polyreactivity
35 | QVQLLESGGGLVQAGGSLRLSCAAYGFIFVSNGMGWYRQAPGKEREFVASITSIGGSTYYADSVKGRFTISRDNAKNTVYLQMNSLKPEDTAVYYCAARDIALNAVGRPKEYNRDYWGQGTQVTVSS | low polyreactivity
36 | QVQLLESGGGLVQAGGSLRLSCASSGRTFRQYVMVWYRQAPGKESELVAAITYSGGSTYFADSVKGRFTISRDNAKYSVYLQMNSLTPEDTAVYYCAARNGYCVGYWGQGTQVTVSS | high polyreactivity
37 | QVQLLESGGGLVQAGGSLRLSCASSGSIFHTYAMGWYRPAPGKERELVAAISSGGRTYYADSVKGRFTISRDNAKNTVYLQMNSLKPEDTAVYYCAVRPRPGYYYWGQGTQVTVSS | high polyreactivity
38 | QVQLLESGGGLVQAGRSLRLSCAASGRTFRIYAMGWYRQAPGKEREEVAAITRSSGSTFYADSVKGRFTISRDNAKNTVYLQMNSLKPEDTAVYYCAAEYFEWWVTYDYWGQGTQVTVSS | high polyreactivity
39 | QVQLLESGGGLVQAGVSLRLRCAPSGGTHKYYTMALYRQAPGKERELDATIRWYGDSTSYADSVKGRFTISRDNAKNTVYLQMNSQNPEDTAVYSCNADYAWYQRKSTVEYDYWVQGTQVTVSS | low polyreactivity
40 | QVQLLESGGRLVQAGGSLRLSCAASGFTFGVNAMGWYRQAPGKERELVAAITSRGGSTYYADSVKGRFTISRDNAKNTVYLQMNSLKPEDTAVYYCAALGRGYFYGYRYDHWGQGTQVSVSS | high polyreactivity
41 | QVQLLESGVGLVQAGGSLRLSSAASGRNFQQNAMAWYRQAPGKERELVAAINSRGGRTYYADSVKGRFTISRDNAKNTVYLQMNSLKPEDTAVYYCGAYFRNYRSYYYWGQGTQVTVSS | high polyreactivity
42 | QVQLLESRGGLVQAGGSLRLSCAASGSIFYIYAIGWYRQAPGKEREFVAAIRQSDGRTYYADSVKGRFTISRDNAKNTVYLQRTSLNPEDTAVYYCAAQYPVNYIWGYNDWGQGTQVTVSS | high polyreactivity
43 | QVQLLESVGGLVQAGGSLRISCAASGIIFKSYAMGWYRQAPGKERELVAAISSGGSTYYVDSVKGRFTISRDNAKNTVYLQMNSLKPEDTAVYYCAAYGKYQGYGHWGQGTQVTVSS | high polyreactivity
